The target in assay [1] is copper-induced oxidized low density lipoprotein (Cu-OxLDL) (UniProt P04114). In words: cell-based or functional assay.
For assay [2] the target is unchanged. The assay is described as follows: competition: ^125I-Cu-OxLDL binding to mouse peritoneal macrophages at 4 C, IK17 as competitor.
In assay [3] the target is malondialdehyde low density lipoprotein (MDA-LDL) (UniProt P04114). The assay is described as follows: direct binding and competition assays with affinity purified Fab; method of the affinity value not stated.
In assay [4] the target is copper-induced oxidized low density lipoprotein (Cu-OxLDL) (UniProt P04114). The assay is described as follows: chemiluminescent ELISA, against Fab IK17 as reference. (An ELISA detects its analyte on a solid surface through an enzyme-linked reagent.)
For assay [5], the target named is malondialdehyde low density lipoprotein (MDA-LDL) (UniProt P04114). Described as above.

The source of these data is patent US7556927.

B1: IK17 human monoclonal IgG Fab (Fab, V domains shown)
VH: EVQLLESGGDLVQPGGSLRLSCIVSGSTFSNYAMSWVRQAPGKGLEWVSAISGTGRSTNYADSVKGRFTISRDNSKDTLYLEMNSLRAEDTATYYCTRTPRIDFWNIANRHFDYWGQGTRVTVSS
VL: VLTQSPATLSLSPGERVTLSCRASQSVSSSLAWYQQKPGQAPRLLIYDASNRATGVPARFSGSGSGTDFTLTISGLEPEDFAVYYCQQRYNWPPKYTFGQGTKLEIRR
Molecule B1 gave a degradation of ^125I-Cu-OxLDL by macrophages (TCA-soluble ^125I in medium), % inhibition in assay [1] of 50 to 65%. In assay [2], the % inhibition of binding of ^125I-Cu-OxLDL to macrophages is 70 to 85%. Moreover, in assay [3], the Kd worked out at 37 nM.

B2: scFv IK17 (scFv, part only; not given: linker and His tag, not shown: small tags and cut ends)
scFv, part: MAEVQLLESGGDLVQPGGSLRLSCIVSGSTFSNYAMSWVRQAPGKGLEWVSAISGTGRSTNYADSVKGRFTISRDNSKDTLYLEMNSLRAEDTATYYCTRTPRIDFWNIANRHFDYWGQGTRVTVSSASTKGPSVFPLAPSSKSTSGGTAALGCLVRDYFPEPVTVSWNSGALTSGVHTFPAVLQSSGLYSLSSVVTVPSSVLTQSPATLSLSPGERVTLSCRASQSVSSSLAWYQQKPGQAPRLLIYDASNRATGVPARFSGSGSGTDFTLTISGLEPEDFAVYYCQQRYNWPPKYTFGQGTKLEIRRTVAAPSVFIFPPSDEQLKSGTASVVCLLNNFYPREAKVQWKVG
Regarding B2, the fold greater binding activity than parent Fab in assay [4] and in assay [5] was 50 to 500 fold each time.

By Kd is commonly meant the free concentration of one partner at which half of the binding sites on the other are occupied at equilibrium, for simple one-to-one binding. Read a high Kd as lower affinity.
